# Reference: PMC4199230
# Biological target: 6X-His-PTPROt-CS/DA
# Experiment: pull-down
row,Substance,percent reduction of binding against WT VCP
1,HA-tagged VCP Y796F (from UniProt P55072 1-806) (natural protein),50%
2,HA-tagged VCP Y796F/Y805F (from UniProt P55072 1-806) (natural protein),> 90%
3,HA-tagged VCP Y805F (from UniProt P55072 1-806) (natural protein),> 90%
